From US20250163162A1 (SYNTHEKINE, published 2025)

T1: IL10Rα/IL2Rγ receptor (human, UniProt Q13651 22-578; P31785 23-369)
T1 sequence (looked up) 1: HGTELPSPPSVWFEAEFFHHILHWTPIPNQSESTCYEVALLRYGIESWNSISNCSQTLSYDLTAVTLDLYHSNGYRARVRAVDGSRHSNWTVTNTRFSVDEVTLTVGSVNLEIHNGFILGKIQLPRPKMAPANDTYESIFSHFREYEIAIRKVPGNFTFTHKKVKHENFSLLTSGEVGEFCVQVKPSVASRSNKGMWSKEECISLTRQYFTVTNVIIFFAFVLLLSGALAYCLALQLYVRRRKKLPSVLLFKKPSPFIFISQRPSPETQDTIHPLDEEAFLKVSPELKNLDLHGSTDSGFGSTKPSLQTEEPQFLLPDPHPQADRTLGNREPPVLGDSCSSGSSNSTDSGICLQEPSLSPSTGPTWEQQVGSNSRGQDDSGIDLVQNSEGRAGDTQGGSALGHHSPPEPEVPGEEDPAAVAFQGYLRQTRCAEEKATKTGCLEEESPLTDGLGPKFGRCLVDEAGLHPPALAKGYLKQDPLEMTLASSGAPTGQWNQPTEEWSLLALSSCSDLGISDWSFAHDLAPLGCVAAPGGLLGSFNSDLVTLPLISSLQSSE
T1 sequence (looked up) 2: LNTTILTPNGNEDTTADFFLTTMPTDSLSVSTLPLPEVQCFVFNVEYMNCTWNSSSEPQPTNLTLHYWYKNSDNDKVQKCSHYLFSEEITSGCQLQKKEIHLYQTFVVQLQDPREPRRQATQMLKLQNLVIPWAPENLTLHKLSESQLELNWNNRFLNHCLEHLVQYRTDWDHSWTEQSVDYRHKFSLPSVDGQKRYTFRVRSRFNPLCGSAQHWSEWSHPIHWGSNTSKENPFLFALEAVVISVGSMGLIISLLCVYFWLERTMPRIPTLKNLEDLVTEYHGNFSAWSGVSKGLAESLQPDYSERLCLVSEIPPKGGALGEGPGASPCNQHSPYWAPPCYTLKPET

B1: DR442(DR236-DR232) (bispecific antibody)
chain: QVQLQESGGGSVQAGGSLRLSCAASRFTYSSYCMGWFRQAPGKEREGVASIDSDGSTSYTDSVKGRFTISKDNAKNTLYLQMNSLKPEDTAMYYCALDLMSTVVPGFCGFLLSAGMDYWGKGTQVTVSSGGGSQVQLQESGGGSVQAGGSLRLSCVASGYTSCMGWFRQAPGKEREAVATIYTRGRSIYYADSVKGRFTISQDNAKNTLYLQMNSLKPEDIAMYSCAAGGYSWSAGCEFNYWGQGTQVTVSSASHHHHHH
B2: DR438(DR235-DR234) (bispecific antibody)
chain: QVQLQESGGGSVQAGGSLRLSCAASRYLYSIDYMAWFRQSPGKEREPVAVIYTASGATFYPDSVKGRFTISQDNAKMTVYLQMNSLKSEDTAMYYCAAVRKTDSYLFDAQSFTYWGQGTQVTVSSGGGSQVQLQESGGGSVQAGGSLRLSCVASGYTFSSYCMGWFRQAPGKEREGVAALGGGSTYYADSVKGRFTISQDNAKNTLYLQMNSLKPEDTAMYYCAAAWVACLEFGGSWYDLARYKHWGQGTQVTVSSASHHHHHH
B3: DR468(DR240-DR234) (bispecific antibody)
chain: QVQLQESGGGSVQAGGSLRLSCGASGYTYSSYCMGWFRQVPGKEREGVAVIDSDGSTSYADSVKGRFTISKDNGKNTLYLQMNSLKPEDTAMYYCAADLGHYRPPCGVLYLGMDYWGKGTQVTVSSGGGSQVQLQESGGGSVQAGGSLRLSCVASGYTFSSYCMGWFRQAPGKEREGVAALGGGSTYYADSVKGRFTISQDNAKNTLYLQMNSLKPEDTAMYYCAAAWVACLEFGGSWYDLARYKHWGQGTQVTVSSASHHHHHH
B4: DR392(DR229-DR236) (bispecific antibody)
chain: QVQLQESGGGLVQPGGSLRLSCTASGFSFSSYPMTWARQAPGKGLEWVSTIASDGGSTAYAASVEGRFTISRDNAKSTLYLQLNSLKTEDTAMYYCTKGYGDGTPAPGQGTQVTVSSGGGSQVQLQESGGGSVQAGGSLRLSCAASRFTYSSYCMGWFRQAPGKEREGVASIDSDGSTSYTDSVKGRFTISKDNAKNTLYLQMNSLKPEDTAMYYCALDLMSTVVPGFCGFLLSAGMDYWGKGTQVTVSSASHHHHHH
B5: DR474(DR241-DR234) (bispecific antibody)
chain: QVQLQESGGGSVQAGGSLRLSCAASGYSNCSYDMTWYRQAPGKEREFVSAIHSDGSTRYADSVKGRFFISQDNAKNTVYLQMNSLKPEDTAMYYCKTDPLHCRAHGGSWYSVRANYWGQGTQVTVSSGGGSQVQLQESGGGSVQAGGSLRLSCVASGYTFSSYCMGWFRQAPGKEREGVAALGGGSTYYADSVKGRFTISQDNAKNTLYLQMNSLKPEDTAMYYCAAAWVACLEFGGSWYDLARYKHWGQGTQVTVSSASHHHHHH
B6: DR466(DR240-DR232) (bispecific antibody)
chain: QVQLQESGGGSVQAGGSLRLSCGASGYTYSSYCMGWFRQVPGKEREGVAVIDSDGSTSYADSVKGRFTISKDNGKNTLYLQMNSLKPEDTAMYYCAADLGHYRPPCGVLYLGMDYWGKGTQVTVSSGGGSQVQLQESGGGSVQAGGSLRLSCVASGYTSCMGWFRQAPGKEREAVATIYTRGRSIYYADSVKGRFTISQDNAKNTLYLQMNSLKPEDIAMYSCAAGGYSWSAGCEFNYWGQGTQVTVSSASHHHHHH
B7: DR449(DR237-DR233) (bispecific antibody)
chain: QVQLQESGGGSVQAGGSLRLSCAASGYTYSMYCMGWFRQAPGKEREGVAQINSDGSTSYADSVKGRFTISKDNAKNTLYLQMNSLKPEDTAMYYCAADSRVYGGSWYERLCGPYTYEYNYWGQGTQVTVSSGGGSQVQLQESGGGSVQAGGSLRLSCTASGFTFDDSDMGWYRQAPGNECELVSTISSDGSTYYADSVKGRFTISQDNAKNTVYLQMNSLKPEDTAVYYCAAEPRGYYSNYGGRRECNYWGQGTQVTVSSASHHHHHH
B8: DR444(DR236-DR234) (bispecific antibody)
chain: QVQLQESGGGSVQAGGSLRLSCAASRFTYSSYCMGWFRQAPGKEREGVASIDSDGSTSYTDSVKGRFTISKDNAKNTLYLQMNSLKPEDTAMYYCALDLMSTVVPGFCGFLLSAGMDYWGKGTQVTVSSGGGSQVQLQESGGGSVQAGGSLRLSCVASGYTFSSYCMGWFRQAPGKEREGVAALGGGSTYYADSVKGRFTISQDNAKNTLYLQMNSLKPEDTAMYYCAAAWVACLEFGGSWYDLARYKHWGQGTQVTVSSASHHHHHH

Each binder was assayed against T1, IL10Rα/IL2Rγ receptor (assay: cell-based or functional assay).
B1 was tested, and the “pSTAT3 MFI, B cells, 100 nM (unstimulated 1045)” value (“pSTAT3 MFI, B cells, 100 nM” below) was 1050 MFI, the “pSTAT3 MFI, CD4+ T cells, 100 nM (unstimulated 1778)” value (from here on “pSTAT3 MFI, CD4+ T cells, 100 nM”) was 3110 MFI and the “pSTAT3 MFI, CD8+ T cells, 100 nM (unstimulated 1288)” value (“pSTAT3 MFI, CD8+ T cells, 100 nM” below) was 2100 MFI. The “pSTAT3 MFI, Monocytes, 100 nM (unstimulated 1787)” value (shortened to “pSTAT3 MFI, Monocytes, 100 nM”) was 1790 MFI and the “pSTAT3 MFI, NK cells, 100 nM (unstimulated 1149)” value (from here on “pSTAT3 MFI, NK cells, 100 nM”) was 1220 MFI.
With B2 the “pSTAT3 MFI, B cells, 100 nM” value was 1050 MFI, the “pSTAT3 MFI, CD4+ T cells, 100 nM” value was 2780 MFI and the “pSTAT3 MFI, CD8+ T cells, 100 nM” value was 1830 MFI. The “pSTAT3 MFI, Monocytes, 100 nM” value was 1810 MFI and the “pSTAT3 MFI, NK cells, 100 nM” value was 1170 MFI.
In the case of B3, the “pSTAT3 MFI, B cells, 100 nM” value is reported as 1080 MFI, the “pSTAT3 MFI, CD4+ T cells, 100 nM” value is reported as 3520 MFI and the “pSTAT3 MFI, CD8+ T cells, 100 nM” value is reported as 2260 MFI. For the same binder, the “pSTAT3 MFI, Monocytes, 100 nM” value was 1860 MFI and the “pSTAT3 MFI, NK cells, 100 nM” value was 1290 MFI.
For B4, the “pSTAT3 MFI, B cells, 100 nM” value was 1060 MFI, the “pSTAT3 MFI, CD4+ T cells, 100 nM” value was 3340 MFI and the “pSTAT3 MFI, CD8+ T cells, 100 nM” value was 2390 MFI. The “pSTAT3 MFI, Monocytes, 100 nM” value was 1890 MFI and the “pSTAT3 MFI, NK cells, 100 nM” value was 1280 MFI.
B5 was tested, and the “pSTAT3 MFI, B cells, 100 nM” value was 1030 MFI, the “pSTAT3 MFI, CD4+ T cells, 100 nM” value was 3770 MFI and the “pSTAT3 MFI, CD8+ T cells, 100 nM” value was 2460 MFI. For the same binder, the “pSTAT3 MFI, Monocytes, 100 nM” value was 2320 MFI and the “pSTAT3 MFI, NK cells, 100 nM” value was 1230 MFI.
With B6 the “pSTAT3 MFI, B cells, 100 nM” value was 1100 MFI, the “pSTAT3 MFI, CD4+ T cells, 100 nM” value was 3170 MFI and the “pSTAT3 MFI, CD8+ T cells, 100 nM” value was 2310 MFI. The “pSTAT3 MFI, Monocytes, 100 nM” value was 1870 MFI and the “pSTAT3 MFI, NK cells, 100 nM” value was 1280 MFI.
In the case of B7, the “pSTAT3 MFI, B cells, 100 nM” value is reported as 1090 MFI, the “pSTAT3 MFI, CD4+ T cells, 100 nM” value is reported as 2700 MFI and the “pSTAT3 MFI, CD8+ T cells, 100 nM” value is reported as 1880 MFI. For the same binder, the “pSTAT3 MFI, Monocytes, 100 nM” value was 1880 MFI and the “pSTAT3 MFI, NK cells, 100 nM” value was 1250 MFI.
In the case of B8, the “pSTAT3 MFI, B cells, 100 nM” value is reported as 1070 MFI, the “pSTAT3 MFI, CD4+ T cells, 100 nM” value is reported as 3700 MFI and the “pSTAT3 MFI, CD8+ T cells, 100 nM” value is reported as 2410 MFI. For the same binder, the “pSTAT3 MFI, Monocytes, 100 nM” value was 1830 MFI and the “pSTAT3 MFI, NK cells, 100 nM” value was 1270 MFI.
